To fix the notation:
B1: H1H5788P (antibody, V domains shown)
VH: EVQLVESGGGLVQPGRSLRLSCAASGFTFDDYTMHWVRQAPGKGLEWVSGISWNSGSIGYADSVKGRFTISRDNAKNSLYLQMNSLRAEDTALFYCAKDQSGYGHYYYGMDVWGQGTTVTVSS
VL: EIVMTQSPATLSVSPGERATLSCRASQSVSSNLAWYQQKPGQAPRLLIYGASTRATDIPARFSGSGSGTEFTLTISSLQSEDFAVYHCQQYNNWPLTFGGGTKVEIK
notes: H1H: human IgG1 Fc; divalent
B2: H1M3544N (antibody, V domains shown)
VH: EVQLVESGGGLVQPGRSLRLSCAASGFTFDDYTMHWVRQVPGKGLEWVSGISWNSGSLAYADSVKGRFTISRDNAKNSLYLQMNSLHPEDTALYYCVKDGSGYGHYSYYGLDVWGQGTTVTVSS
VL: not shown
notes: Hybridoma antibody, human variable regions, mouse IgG1 Fc
B3: H2M3547N (antibody, V domains shown)
VH: EAQLVESGGGLVQPGRSLRLSCTTSGFTFDDYTMHWVRQAPGKGLEWISDISWNGGTKGYADSVKGRFTISRDNAKNSLYLQMDSLRGEDTALYYCVKDKSGYGHFYFGLDVWGQGTTVTVSS
VL: DIQMTQSPSSLTASVGDRVTFTCRASQSISRHLSWYQQKPGKAPKLLIYAASSLESGVPSRFSGSGSGTDFTLTISSLHPEDFATYYCQQSYSNPPITFGQGTRLEIK
notes: Hybridoma antibody, human variable regions, mouse IgG2 Fc
B4: H2M2862N (antibody, V domains shown)
VH: QVQLVESGGGVVQPGRSLRLSCAASGFTFRSYGMHWVRQAPGKGLEWVAMIYYDGNNKKYADSVRGRFTISRDNSKNTLYLQMNSLRVEDTAVYFCARGPGYNWLDPWGQGTLVTVSS
VL: EIVMTQSPATLSVSPGERATLSCRASQSVSRNLAWYQQKPGQAPRLLIYGASTRATDIPARFSGSGSGTEFILNISSLQSEDFALYYCQQYSNWPLTFGGGTEVEIK
notes: as for B3
B5: H2M2778N (antibody, V domains shown)
VH: EVQLVESGGGLVQPGRSLRLSCAASGFTFDDYSMHWVRQAPGKGLEWVSGISWNSRSIDYADSVKGRFTISRDNAKNSLYLQMNSLRAEDTALYYCVKDNSGYGRYYYYGMDVWGQGTTVSVSS
VL: KIVMTQSPATLSVSPGERATLSCRASQSVSGNLAWYQQKPGQAPRLLIYGASTRATSIPARFSGSGSGTEFTLTISSLQSEDFAVYFCQHYYNWPLTFGGGTKVEIR
notes: as for B3
B6: H2M3548N (antibody, V domains shown)
VH: EVQLVESGGGLVQPGRSLRLSCAASGFKFADYAMHWVRQAPGKGLEWVSEISWNSGSIGYVDSVKGRFTISRDNAKNSLYLQMNSLRAEDTALYYCVKDKSGYGHYYIGMDVWGQGTTVIVSS
VL: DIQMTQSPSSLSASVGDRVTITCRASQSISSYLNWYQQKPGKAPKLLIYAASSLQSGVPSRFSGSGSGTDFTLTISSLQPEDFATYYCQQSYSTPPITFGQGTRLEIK
notes: as for B3
B7: H2M2777N (antibody, V domains shown)
VH: QVQLVESGGGVVQPGRSLRLSCIASGFTFRSYGMHWVRQAPGKGLEWVAMIYYDGNNKYYADSVRGRFTISRDNSKNTLYLQMNSLRADDTAVYFCARGPGYNWLDPWGQGTLVTVSS
VL: EIVMTQSPATLSVSPGERATLSCRASQSVSSNLAWYQQKPGQAPRLLIYGASTRATGIPARFSGSGSGTEFTLTISSLQSEDFAVYYCQQYNNRPLTFGGGTKVEIK
notes: as for B3
B8: H2M2779N (antibody, V domains shown)
VH: EVQLVESGGGLVQPGGSLRLSCAATGFTFDDFTMHWVRQAPGKGLEWVSGISWNSGSIGYVDSVKGRFTISRDNAKNSLYLQMNSLRAEDTALYYCAKDNSGYGYYYYGMDVWGQGTTVTVSS
VL: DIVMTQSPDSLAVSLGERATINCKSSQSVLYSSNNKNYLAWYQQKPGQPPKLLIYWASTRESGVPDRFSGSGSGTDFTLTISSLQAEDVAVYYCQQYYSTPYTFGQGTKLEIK
notes: as for B3
B9: H1M3549N (antibody, V domains shown)
VH: EVQLVESGGGLVQPGRSLRLSCVASGFPFADYTMHWVRQAPGKGLEWVSDISWNSGSIGYADSVKGRFTISRDNAKNSLYLQMNSLRTEDTALYYCAKDMSGYAHYFYYGMDVWGQGTTVTVSS
VL: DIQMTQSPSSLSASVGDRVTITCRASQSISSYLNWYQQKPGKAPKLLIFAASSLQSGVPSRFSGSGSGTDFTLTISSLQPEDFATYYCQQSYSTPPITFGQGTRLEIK
notes: as for B2
B10: H2M3543N (antibody, V domains shown)
VH: EVQLVESGGGLVQPGRSLRLSCAASGFTFDDYTMHWVRQAPGKGLEWVSDISWNSGSIGYADSVKGRFTVSRDNAKNSLYLQMNSLRGEDTALYYCAKDMSGYAHYGYYGMDVWGQGTTVTVSS
VL: DIQMTQSPSSLSASVGDRVTITCRASQSIRNYLNWYQQKPGKVPKLLIYAASSLQSGVPSRFSGSGSGTDFTLTISSLQPEDFATYYCQQSYSNPPITFGQGTRLEIK
notes: as for B3
B11: H1M3542N (antibody, V domains shown)
VH: EVQLVESGGGLVQPGRSLRLSCVASGFPFADYTMHWVRQAPGKGLEWVSDISWNSGSKGYADSVKGRFTISRDNAKNSLYLQMNSLRTEDTAFYYCAKDMSGYAHYFYYGMDVWGQGTTVTVSS
VL: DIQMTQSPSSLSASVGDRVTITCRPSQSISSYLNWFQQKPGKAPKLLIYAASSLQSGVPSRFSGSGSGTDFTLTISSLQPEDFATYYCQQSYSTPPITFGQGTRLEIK
notes: as for B2
B12: H1M3613N (antibody, V domains shown)
VH: EVQLVESGGGLVQPGRSLKLSCTASGFTFADYTMHWVRQGPGKGLEWVSDISWNSGSKGYADSVKGRFTISRDNAKNSLYLQMNSLRTEDTALYYCAKDMSGYAHYYYYALDVWGQGTTVTVSS
VL: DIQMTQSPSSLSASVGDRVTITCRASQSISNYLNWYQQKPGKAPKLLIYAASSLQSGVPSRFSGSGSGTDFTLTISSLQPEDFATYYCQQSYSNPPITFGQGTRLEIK
notes: as for B2
B13: H2M3541N (antibody, V domains shown)
VH: EVQLVESGGGLVRPGRSLRLSCAASGFTFDDYTMHWVRQAPGKGLEWVSDISWNSGTIGYADSVKGRFTISRDNAKNSLYLQMNSLRPEDTALYYCAKDMSGYAHYYYYGMDVWGQGTTVTVSS
VL: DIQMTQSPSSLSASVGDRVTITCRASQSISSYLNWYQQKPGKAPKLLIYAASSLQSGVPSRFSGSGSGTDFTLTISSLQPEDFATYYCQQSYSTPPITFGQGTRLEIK
notes: as for B3
B14: H2M3540N (antibody, V domains shown)
VH: QVHLEESGGGVVQPGRSLRLSCSASGFTFSSYAMHWVRQAPGKGLEWVAVIWYDGTNKYYLDSVKGRFTISRDNSKNTLFLQMNSLRAEDTAVYYCARDRGSIITHWGQGTLVTVSS
VL: DIQMTQSPSSLSASIGDRVTITCRASQNISSYLNWYQQKPGKAPKLLIYAASSLQSGVPSRFSGSGSGTDFTLTISSLQPEDFATYYCQQTYSTPPITFGQGTRLEIK
notes: as for B3
B15: H2M3563N (antibody, V domains shown)
VH: EVHLVESGGGLVQPGRSLRLSCAASGFTFDDYTMHWVRQAPGKGLEWVSDISWNSGSIGYADSVKGRFTVSRDNAKNSLYLQMNSLRGEDTALYYCAKDMSGYGHYGKYGMDVWGQGTTVTVSS
VL: DIQMTQSPSSLSASVGDRVTITCRASQSIRSYLNWYQQKPGKVPKLLIYAASSLQSGVPSRFSGSGSGTDFTLTINSLQPDDFATYYCQQTYSNPPITFGQGTRLEIK
notes: as for B3
B16: H1H5782P (antibody, human IgG1, V domains shown)
VH: EVQLVESGGGLVQPGRSLRLSCAASGFTFDDYAMHWVRQAPGKGLEWVSGISWNSGSKDYADSVKGRFTISRDNTRNSLFLQMNSLRTEDTALYYCAKDKSGYGSFYYGMDVWGQGTTVTVSS
VL: not shown
notes: H1H: human IgG1 Fc; divalent
B17: H1H5752P (antibody, human IgG1, V domains shown)
VH: QVQLVESGGGVVQPGRSLRPSCAASGFSFRDYGMHWVRQAPGKGLEWMAHIWYNGKNKYYADSVKGRFTISRDNSKNTLYLQMNSLRPEDTAVYYCARDGVSARGTPFDYWGQGTLVTVSS
VL: ETTLTQSPAFMSAAPGDKVSISCIASQYIDDDVNWYQQKPGETAIFIIQEASTLVPGISPRFSGSGYGTHFTLTINNIDSEDAAFYFCLQHDNFPYTFGQGTKLEIK
notes: H1H: human IgG1 Fc; divalent

Experimental findings from patent publication US20190127480A1 (Regeneron, published 2019) are described below.

T2 sequence (P07766 23-126 limits assumed, stated change not applied, chain 1 of 2): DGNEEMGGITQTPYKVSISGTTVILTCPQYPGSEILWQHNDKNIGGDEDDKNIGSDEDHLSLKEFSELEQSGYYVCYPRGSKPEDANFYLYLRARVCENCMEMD
T2 sequence (P04234 22-105 limits assumed, stated change not applied, chain 2 of 2): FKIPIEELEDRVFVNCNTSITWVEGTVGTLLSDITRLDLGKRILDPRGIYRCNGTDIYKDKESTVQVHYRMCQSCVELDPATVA

In the first experiment the target is T1, Soluble heterodimeric CD3 protein (hCD3-epsilon/hCD3-delta) with either a human Fc tag (hFcΔAdp/hFc) or a … (human, UniProt P07766 23-126; P04234 22-105).
T1 construct: also called hCD3ε/δ; not shown: Fc tag: human (hFcΔAdp/hFc)
T1 sequence (P07766 23-126 limits assumed, stated change not applied, chain 1 of 2): as the sequence (P07766 23-126 limits assumed, stated change not applied, chain 1 of 2) above
T1 sequence (P04234 22-105 limits assumed, stated change not applied, chain 2 of 2): as the sequence (P04234 22-105 limits assumed, stated change not applied, chain 2 of 2) above
The experiment in a line: SPR Biacore 25C antigen-capture. How it is done: (§1) Measurements were conducted on a T200 Biacore™ instrument.
In the antigen-capture format, heterodimeric CD3 protein was captured using a rabbit anti-mouse Fc or mouse anti-human Fc and the respective antibodies were injected over the captured antigen.
(§2) Kinetic association (kₐ) and dissociation (kd) rate constants were determined by processing and fitting the data to a 1:1 binding model using Scrubber 2.0 curve fitting software. Binding dissociation equilibrium constants (KD) and dissociative half-lives (t₁₁₂) were calculated from the kinetic rate constants as: KD (M)=kd/kₐ; and t_{1/2} (min)=(ln 2/(60*kd). NT=not tested; NB=no binding observed.
(In general: Surface plasmon resonance follows binding to a sensor surface in real time, without labels.)
What is called Kd is the free concentration of one partner at which half of the binding sites on the other are occupied at equilibrium, for simple one-to-one binding. A lower Kd goes with tighter binding. In general, koff refers to a measure of how fast the partners let go of each other. Lower therefore signals slow dissociation. Broadly, the kon is the rate constant with which the complex forms. Low readings indicate slow association, high ones fast association. Consider B1, for which the affinity, expressed as Kd, was 2.33 nM; the “T½” value was 70 min; the koff came to 0.000164 s⁻¹; the kon came to 70600 M⁻¹ s⁻¹.

Another experiment concerns the target T2, Soluble heterodimeric CD3 protein (hCD3-epsilon/hCD3-delta) with a human Fc tag (hFcΔAdp/hFc) or a mouse Fc … (human, UniProt P07766 23-126; P04234 22-105).
T2 construct: also called hCD3ε/δ; not shown: Fc tag: human (hFcΔAdp/hFc); which tag was used in Ta
The experiment in a line: SPR Biacore, 25 C, antibody-capture format. How it is done:
as §1
(§3) Soluble heterodimeric CD3 protein (hCD3-epsilon/hCD3-delta; SEQ ID NOs:1652/1653) with either a human Fc tag (hFcΔAdp/hFc; SEQ ID NOs:1683/1684) or a mouse Fc tag (mFcΔAdp/mFc; SEQ ID NOs:1685/1686) was injected over the antibody captured surface and the binding response was recorded. Heterodimeric CD3 protein was purified using the method described in Davis et al. (US2010/0331527).
as §2
For B2, the “T½” value came out at 82 min.
With B3, binding was characterised by a dissociation constant (Kd) of 15.9 nM, the “T½” value stood at 33 min, the koff came out at 0.000347 s⁻¹ and the kon is 21800 M⁻¹ s⁻¹.
B4: the affinity, expressed as Kd, was 80.7 nM; the “T½” value came to 4 min; the dissociation rate constant (koff) is 0.003 s⁻¹; the kon amounted to 37200 M⁻¹ s⁻¹.
Regarding B5, binding was put at a Kd of 8.9 nM, the “T½” value amounted to 61 min, the koff turned out to be 0.000189 s⁻¹ and the on-rate constant (kon) came to 21300 M⁻¹ s⁻¹.
The corresponding values for B6 are 130 nM, 2 min, 0.00504 s⁻¹ and 38700 M⁻¹ s⁻¹.
Consider B7, for which the affinity, expressed as Kd, was 43.9 nM; the “T½” value worked out at 7 min; the off-rate constant (koff) was found to be 0.00163 s⁻¹; the kon amounted to 37000 M⁻¹ s⁻¹.
For the molecule B8, binding was put at a Kd of 10.5 nM, the “T½” value was found to be 51 min, the koff came to 0.000228 s⁻¹ and the kon was 21800 M⁻¹ s⁻¹.
On to B9, for which the affinity, expressed as Kd, was 77.6 nM; the “T½” value worked out at 13 min; the koff is 0.000919 s⁻¹; the kon amounted to 11800 M⁻¹ s⁻¹.
Take B10: the Kd turned out to be 30 nM, the “T½” value amounted to 51 min, the off-rate (koff) stood at 0.000226 s⁻¹ and the kon was 7530 M⁻¹ s⁻¹.
Consider B11, for which the dissociation constant Kd was found to be 21.4 nM, the “T½” value is 23 min, the koff was 0.000508 s⁻¹ and the kon is 23700 M⁻¹ s⁻¹.
Taken in the same sequence, the figures for B12 were 15.7 nM, 38 min, 0.000304 s⁻¹ and 19300 M⁻¹ s⁻¹.
Take B13: binding was put at a Kd of 189 nM, the “T½” value turned out to be 9 min, the dissociation rate constant (koff) was found to be 0.00135 s⁻¹ and the kon came to 7100 M⁻¹ s⁻¹.
With B14, the Kd was found to be 16.2 nM, the “T½” value was found to be 19 min, the off-rate constant (koff) came to 0.000611 s⁻¹ and the on-rate constant (kon) was found to be 37700 M⁻¹ s⁻¹.
With B15, the dissociation constant (Kd) came to 3.66 nM, the “T½” value was 97 min, the koff was found to be 0.000119 s⁻¹ and the kon worked out at 32400 M⁻¹ s⁻¹.

The target in another experiment is T1, Soluble heterodimeric CD3 protein …. The experiment in a line: SPR Biacore 25C antibody-capture. How it is done: as §1, §3, §2
Regarding B16, the binding result is reported as “no binding”.
On to B17, for which the binding result is on record as “no binding”.
For B1, the dissociation constant (Kd) was 101 nM, the “T½” value worked out at 40 min, the koff was determined as 0.000291 s⁻¹ and the on-rate constant (kon) stood at 2880 M⁻¹ s⁻¹.
